Key:
[1] = test system: CD300a antigen and seven B7 family protein antigens (PD-L1, ICOS Ligand, CD276, B7-H4, CD80, CD86, CD273); experiment: Binding specificity ELISA against B7 family proteins; details: antigens coated at 8 μg/mL
Description: In order to identify that the anti-CD300c monoclonal antibody CL7 specifically binds only to CD300c without binding to other B7 family proteins, binding ELISA was performed. More specifically, each of CD300c antigen, CD300a antigen, or seven B7 family protein antigens (PD-L1 [B7-H1] (Sino Biological), ICOS Ligand[B7-H2] (Sino Biological), CD276[B7-H3] (Sino Biological), B7-H4 (Sino Biological), CD80[B7-1] (Sino Biological), CD86[B7-2] (Sino Biological), CD273[PD-L2] (Sino Biological)) in a coating buffer (0.1 M sodium carbonate, pH 9.0) was coated on an ELISA plate at a concentration of 8 μg/mL per well, and then bound to the plate by incubation at 2° C. to 8° C. overnight. The unbound antigen was removed by washing with PBST three times, and then […] of blocking buffer (5% skim milk in PBST) was added to each well. Subsequently, blocking was performed at room temperature for 1 hour, followed by washing again with PBST. Thereafter, CL7 was diluted in quadruplicate with PBS, incubated with the antigen at room temperature for 1 hour for antigen binding 1 hour later, and washed three times with PBST. […] Then, 2 N sulfuric acid solution was added to terminate the development reaction, and the absorbance was measured at 450 nm to identify the antibody specifically binding to the CD300c antigen.

[2] = test system: B16F10 melanoma cells; experiment: In vivo cancer growth inhibition, B16F10 melanoma model; set-up: species or system C57BL/6 mice; details: CL7 25 mg/kg, α-PD-1 10 mg/kg, α-CTLA4 4 mg/kg i.p. twice a week, 4 times; 20 days
Description: In order to identify whether the anti-CD300c monoclonal antibody CL7 is effective in other carcinomas in addition to a CT26 colon cancer mouse model, an additional experiment was conducted with melanoma mouse models. B16F10 melanoma cells at 7×10^5 cells were transplanted by subcutaneous injection into 8-week-old male C57BL/6 mice to prepare syngeneic mouse tumor models. Animal breeding and experiments were all conducted in a SPF facility. On day 8 after transplantation of the melanoma cell line, the mice with a tumor size of 50 mm^3 to 100 mm^3 were intraperitoneally injected with 25 mg/kg of CL7, 10 mg/kg of α-PD-1, and 4 mg/kg of α-CTLA4. More specifically, the mice were injected, twice a week for 2 weeks (over a total of 4 times), with each of the anti-CD300c monoclonal antibody, the anti-PD-1 antibody, the anti-CD300c monoclonal antibody+the anti-PD-1 antibody (Combo), and the anti-CD300c monoclonal antibody+the anti-PD-1 antibody+the anti-CTLA-4 antibody (Triple), and for a control group, the mice were injected with the same amount of phosphate buffered saline (PBS). The cancer size was measured for 20 days.

[3] = test system: colon cancer cell line (CT26) tumor; experiment: In vivo cancer growth inhibition, CT26 model, CL7 dose range; set-up: species or system BALB/c mice; details: 1, 5, 10 or 25 mg/kg i.p. on D11, D14, D18, D21; 25 days
Description: In order to identify anticancer effects of the anti-CD300c monoclonal antibody CL7 under in vivo conditions, a colon cancer cell line (CT26) at 2×10^5 cells was transplanted by subcutaneous injection into 8-week-old BALB/c mice to prepare syngeneic mouse tumor models. Animal breeding and experiments were all conducted in a SPF facility. On day 11 (D11) after the transplantation of the colon cancer cell line, the mice with a tumor size of 50 mm^3 to 100 mm^3 were administered the anti-CD300c monoclonal antibody 1 mg/kg, 5 mg/kg, 10 mg/kg, or 25 mg/kg, respectively, and for a control group, the mice were administered the same amount of phosphate buffered saline (PBS). Specifically, the mice were intraperitoneally injected with each dosage twice a week for two weeks (a total of 4 times on D11, D14, D18, and D21). The tumor volume was measured for 25 days.

[4] = test system: THP-1; experiment: M1 macrophage marker ELISA in THP-1; type: cell-based, human; details: THP-1, 10 μg/mL, 48 hours, antibody alone
Description: In order to identify whether the induction of differentiation of monocytes into M1 macrophages increases when the cells are treated with the anti-CD300c monoclonal antibody CL7 produced in Example 1 and an immunotherapeutic agent, such as Imfinzi as an anti-PD-L1 antibody, Opdivo as an anti-PD-1 antibody, KEYTRUDA as an anti-PD-1 antibody, an anti-CD47 antibody (αCD47), and an anti-CTLA-4 antibody, alone in combination, THP-1 was dispensed into a 96-well plate at 1.5×10^4 cells/well and treated with the anti-CD300c monoclonal antibody and the immunotherapeutic agent, respectively, at 10 μg/mL alone or in combination, followed by incubation for 48 hours, and the production levels of tumor necrosis factor-α (TNF-α), IL-1b, and IL-8, which are differentiation markers of M1 macrophages, were measured using an ELISA kit (Human TNF-α Quantikine kit, R&D Systems).

[5] = test system: MDA-MB-231 (human breast cancer cell line); experiment: MDA-MB-231 cancer cell growth inhibition (CCK-8); type: cell-based; details: 10 μg/mL each, 5 days
Source text: In order to identify cancer cell growth inhibitory effects by combined administration of the anti-CD300c monoclonal antibody CL7 and an immunotherapeutic agent, the cancer cell growth inhibitory effects were compared using A549 (human lung cancer cell line) and MDA-MB-231 (human breast cancer cell line). Specifically, the cells were dispensed into a 96-well plate at 2×10^4 cells (A549) or 3×10^4 cells (MDA-MB-231) under 0% fetal bovine serum (FBS) conditions, and at 6×10^3 cells (A549) or 1×10^4 cells (MDA-MB-231) under 0.1% fetal bovine serum conditions. Subsequently, the cells were treated with the anti-CD300c monoclonal antibody and Imfinzi at 10 μg/mL alone or in combination, followed by incubation for 5 days. For a control group, the cells were treated with the same amount of phosphate buffer solution (PBS). Then, the cells were treated with CCK-8 (DOJINDO), and the absorbance was measured at OD 450 nm. The results are shown in FIG. 33 (A549) and FIG. 34 (MDA-MB-231).

B1: CL7: anti-CD300c monoclonal antibody, VH3VL1 phage library, VH SEQ ID 327, VL SEQ ID 328 (antibody, V domains shown)
VH: EVQLLESGGGLVQPGGSLRLSCAASGFTFSRYAMSWVRQAPGKGLEWVSAISGSGGSTYYADSVKGRFTISRDNSKNTLYLQMNSLRAEDTAVYYCARSSQGIFDIWGQGTLVTVSS
VL: QSVLTQPPSASGTPGQRVTISCSGNNIGTRRVHWYQQLPDTAPKLLIYSKNNRPSGVPDRFSGSKSGTSASLAISGLRSEDEADYYCAAWDDSLSGPVFGGGTKLTVL
modifications: CL7 Heavy Chain Variable Region; CL7 Light Chain Variable Region
binding specificity versus other similar proteins [1]: specifically recognized only CD300c without binding to other similar proteins
cancer growth (cancer size) [2]: inhibited
growth of CT26 colon cancer (tumor volume) [3]: delayed the growth of CT26 colon cancer in a dose-dependent manner
production level of IL-8 [4]: significantly increased
production levels of all three differentiation markers (TNF-α, IL-1b, IL-8) [4]: increased
cancer cell growth inhibitory effect compared with control group ([5]; MDA-MB-231, 0.1% FBS (second statement)): 19%
cancer cell growth inhibitory effect compared with control group ([5]; MDA-MB-231, 0.1% FBS as printed (first statement)): 19%

Reference: patent publication US20240254220A1, “COMBINED THERAPY USING ANTI-CD300C ANTIBODY” (CentricsBio, Inc., priority 2021, published 2024)
